The data set concerns the molecule itself. Description: native MS; 10 μM monomer in 10 mM aqueous ammonium acetate, pH 6.8; nano-electrospray, modified Orbitrap (Exactive Plus / Q-Exactive EMR); oligomeric state of the protein with itself.

Broadly, the stoichiometry N is the number of molecules, sites or subunits per partner or assembly.

B1: gp31 (natural protein, bacteriophage T4)
chain: MSEVQQLPIRAVGEYVILVSEPAQAGDEEVTESGLIIGKRVQGEVPELCVVHSVGPDVPEGFCEVGDLTSLPVGQIRNVPHPFVALGLKQPKEIKQKFVTCHYKAIPCLYK
notes: gp31, co-chaperonin encoded by bacteriophage T4, structural homologue of GroES; heptamer of identical 12 kDa subunits; The printed subunit mass of 12 kDa fits the whole protein; also called gp31 heptamer; source: over-expressed in E. coli strain MC1009, purified as described previously
As for B1, the “stoichiometry N” value was determined as 7.

B2: GroES (natural protein, Escherichia coli)
chain: MNIRPLHDRVIVKRKEVETKSAGGIVLTGSAAAKSTRGEVLAVGNGRILENGEVKPLDVKVGDIVIFNDGYGVKSEKIDNEEVLIMSESDILAIVEA
notes: GroES, co-chaperonin of Escherichia coli; homo-heptamer of 10.4 kDa subunits; The printed subunit mass of 10.4 kDa fits the whole protein; also called GroES heptamer; co-chaperonin GroES; source: over-expressed in E. coli strain MC1009, purified as described previously
As for B2, the “stoichiometry N” value was 7.

Source of the values: publication PMC6318259, “Distinct Stabilities of the Structurally Homologous Heptameric Co-Chaperonins GroES and gp31” (Journal of the American Society for Mass Spectrometry, 2018).
